Measured values as given in paper PMC10837151, “Asymmetric nucleosome PARylation at DNA breaks mediates directional nucleosome sliding by ALC1” (Nature Communications, 2024).

Biological target: T1, histone H4 (Xenopus laevis) (Xenopus laevis, UniProt P62799 1-103)
T1 construct: histone H4, Xenopus laevis, recombinant; In the cryo-EM structure H4 stood within the nucleosome m2; source: bought: Histone Source Protein Expression and Purification Facility, Colorado State University (purified recombinant)
Test: cryo-EM structure; modified nucleosomes at 1 µM, ALC1 at 6 µM, ADP-BeF3 at 1 mM, incubated 60 minutes on ice before vitrification
Conditions: both partners purified

B1: ALC1 (Amplified in Liver Cancer 1), wild-type construct (16-879) (enzyme)
chain: FLLRLHTEGRAEAARVQEQDLRQWGLTGIHLRSYQLEGVNWLAQRFHCQNGCILGDEMGLGKTCQTIALFIYLAGRLNDEGPFLILCPLSVLSNWKEEMQRFAPGLSCVTYAGDKEERACLQQDLKQESRFHVLLTTYEICLKDASFLKSFPWSVLVVDEAHRLKNQSSLLHKTLSEFSVVFSLLLTGTPIQNSLQELYSLLSFVEPDLFSKEEVGDFIQRYQDIEKESESASELHKLLQPFLLRRVKAEVATELPKKTEVVIYHGMSALQKKYYKAILMKDLDAFENETAKKVKLQNILSQLRKCVDHPYLFDGVEPEPFEVGDHLTEASGKLHLLDKLLAFLYSGGHRVLLFSQMTQMLDILQDYMDYRGYSYERVDGSVRGEERHLAIKNFGQQPIFVFLLSTRAGGVGMNLTAADTVIFVDSDFNPQNDLQAAARAHRIGQNKSVKVIRLIGRDTVEEIVYRKAASKLQLTNMIIEGGHFTLGAQKPAADADLQLSEILKFGLDKLLASEGSTMDEIDLESILGETKDGQWVSDALPAAEGGSRDQEEGKNHMYLFEGKDYSKEPSKEDRKSFEQLVNLQKTLLEKASQEGRSLRNKGSVLIPGLVEGSTKRKRVLSPEELEDRQKKRQEAAAKRRRLIEEKKRQKEEAEHKKKMAWWESNNYQSFCLPSEESEPEDLENGEESSAELDYQDPDATSLKYVSGDVTHPQAGAEDALIVHCVDDSGHWGRGGLFTALEKRSAEPRKIYELAGKMKDLSLGGVLLFPVDDKESRNKGQDLLALIVAQHRDRSNVLSGIKMAALEEGLKKIFLAAKKKKASVHLPRIGHATKGFNWYGTERLIRKHLAARGIPTYIYYFPRSK
notes: human ALC1/CHD1L, residues 16-879; The cryo-EM methods call the protein ALC1^fl, while the only construct described is 16-879; also called CHD1L; ALC1/CHD1L; source: E. coli Rosetta 2 (DE3), purified (HisTrap, Q/SP ion exchange, Superdex 200)
B1: binds.
